The results in this text go back to US20220325261.

For this data set, the system named is beta-catenin.

For GST-PTPRS D1, the “tyrosine phosphorylation of immunopurified beta-catenin (Western blot)” value is on record as “decreased tyrosine phosphorylation of immunopurified beta-catenin in the presence of GST-PTPRS D1 compared to GST alone”.
